Tested on: GLI-dependent firefly luciferase activity in Shh-LIGHT2 cells
Assay: GLI-dependent luciferase assay in Shh-L2 cells
Type: cell-based, mouse
Conditions: for enhancement of transcriptional activity of overexpressed GLI1: cotransfected with GLI1, Shh-L2 cells; for enhancement of transcriptional activity of overexpressed GLI2: cotransfected with GLI2, Shh-L2 cells; for stimulation of GLI-dependent luciferase activity: kinase construct alone, Shh-L2 cells, normalized with β-galactosidase
Method: Cells were transfected by the expression constructs or respective empty vectors using Polyethylenimine transfection agent (PEI) (Inbio) and as described in [28]. We used 0.25 μg of cDNA per 1 cm^2 of plate surface area for transfections. After 3 h of transfection HEK293, NIH3T3 and Cos1 cells were propagated in the normal growth medium for 48 h. Prior the further analysis the cells were washed twice with PBS. Post-transfectional Shh-L2 cells were grown in the normal growth medium for 24 h and for additional 24 h in the Light medium containing 0.25% FBS, washed once with PBS, lysed in Passive Lysis Buffer (Promega, Madison Wis., USA) (70 ul per well of 24-well plate format) and subjected to luciferase assay.
Luciferase assay was performed as previously described. Briefly, firefly luciferase activity of 12 μl of the Shh-L2 cells lysate was measured using Luciferase Assay Kit (Promega) and galactosidase activity was quantified using Galacto-LightPlus kit (Tropix, Bedford Mass., USA) according to the manufacturer's instructions. Chemiluminicence was measured using Ascent FL Fluoroscan (Thermo Electron Corporation, Waltham Mass., USA) according to the manufacturer's instructions.
We cotransfected the constructs together with GLI-expressing plasmids (or respective empty vector) into Shh-L2 cells and assessed their effect on GLI-dependent firefly luciferase activity. The obtained data was normalized with β-galactosidase values. […] It was able to stimulate the luciferase activity 3.8 times and enhanced the transcriptional activity of over expressed GLI1 and GLI2 approximately 2 and 3.2 times, respectively. The potency of STK36 in the assay was much lower.
In order to examine if the kinase activity of ULK3 is required for the luciferase reporter activation we tested the supposed kinase-deficient variants of ULK3, ULK3(K44R) and ULK3(K139R) in the same assay. […] We also tested the effect of ULK3 and the mutants on the luciferase reporter when the SHH pathway was activated by cotransfection with pShhN (plasmid expressing biologically active part of SHH).

Row | Molecule | enhancement of transcriptional activity of overexpressed GLI1 | enhancement of transcriptional activity of overexpressed GLI2 | stimulation of GLI-dependent luciferase activity
1 | ULK1: unc-51-like kinase 1, homologue of ULK3, overexpressed in Shh-L2 cells (protein, UniProt O75385 1-1050, looked up) Serine/threonine-protein …: MEPGRGGTETVGKFEFSRKDLIGHGAFAVVFKGRHREKHDLEVAVKCINKKNLAKSQTLLGKEIKILKELKHENIVALYDFQEMANSVYLVMEYCNGGDLADYLHAMRTLSEDTIRLFLQQIAGAMRLLHSKGIIHRDLKPQNILLSNPAGRRANPNSIRVKIADFGFARYLQSNMMAATLCGSPMYMAPEVIMSQHYDGKADLWSIGTIVYQCLTGKAPFQASSPQDLRLFYEKNKTLVPTIPRETSAPLRQLLLALLQRNHKDRMDFDEFFHHPFLDASPSVRKSPPVPVPSYPSSGSGSSSSSSSTSHLASPPSLGEMQQLQKTLASPADTAGFLHSSRDSGGSKDSSCDTDDFVMVPAQFPGDLVAEAPSAKPPPDSLMCSGSSLVASAGLESHGRTPSPSPPCSSSPSPSGRAGPFSSSRCGASVPIPVPTQVQNYQRIERNLQSPTQFQTPRSSAIRRSGSTSPLGFARASPSPPAHAEHGGVLARKMSLGGGRPYTPSPQVGTIPERPGWSGTPSPQGAEMRGGRSPRPGSSAPEHSPRTSGLGCRLHSAPNLSDLHVVRPKLPKPPTDPLGAVFSPPQASPPQPSHGLQSCRNLRGSPKLPDFLQRNPLPPILGSPTKAVPSFDFPKTPSSQNLLALLARQGVVMTPPRNRTLPDLSEVGPFHGQPLGPGLRPGEDPKGPFGRSFSTSRLTDLLLKAAFGTQAPDPGSTESLQEKPMEIAPSAGFGGSLHPGARAGGTSSPSPVVFTVGSPPSGSTPPQGPRTRMFSAGPTGSASSSARHLVPGPCSEAPAPELPAPGHGCSFADPITANLEGAVTFEAPDLPEETLMEQEHTEILRGLRFTLLFVQHVLEIAALKGSASEAAGGPEYQLQESVVADQISLLSREWGFAEQLVLYLKVAELLSSGLQSAIDQIRAGKLCLSSTVKQVVRRLNELYKASVVSCQGLSLRLQRFFLDKQRLLDRIHSITAERLIFSHAVQMVQSAALDEMFQHREGCVPRYHKALLLLEGLQHMLSDQADIENVTKCKLCIERRLSALLTGICA | no effect | no effect | 3.4 times
2 | STK36: human serine/threonine kinase STK36, mammalian orthologue of dFu, expressed from STK36pcDNA3.1 (protein, UniProt Q9NRP7 1-1315, looked up) Serine/threonine-protein …: MEKYHVLEMIGEGSFGRVYKGRRKYSAQVVALKFIPKLGRSEKELRNLQREIEIMRGLRHPNIVHMLDSFETDKEVVVVTDYAEGELFQILEDDGKLPEDQVQAIAAQLVSALYYLHSHRILHRDMKPQNILLAKGGGIKLCDFGFARAMSTNTMVLTSIKGTPLYMSPELVEERPYDHTADLWSVGCILYELAVGTPPFYATSIFQLVSLILKDPVRWPSTISPCFKNFLQGLLTKDPRQRLSWPDLLYHPFIAGHVTIITEPAGPDLGTPFTSRLPPELQVLKDEQAHRLAPKGNQSRILTQAYKRMAEEAMQKKHQNTGPALEQEDKTSKVAPGTAPLPRLGATPQESSLLAGILASELKSSWAKSGTGEVPSAPRENRTTPDCERAFPEERPEVLGQRSTDVVDLENEEPDSDNEWQHLLETTEPVPIQLKAPLTLLCNPDFCQRIQSQLHEAGGQILKGILEGASHILPAFRVLSSLLSSCSDSVALYSFCREAGLPGLLLSLLRHSQESNSLQQQSWYGTFLQDLMAVIQAYFACTFNLERSQTSDSLQVFQEAANLFLDLLGKLLAQPDDSEQTLRRDSLMCFTVLCEAMDGNSRAISKAFYSSLLTTQQVVLDGLLHGLTVPQLPVHTPQGAPQVSQPLREQSEDIPGAISSALAAICTAPVGLPDCWDAKEQVCWHLANQLTEDSSQLRPSLISGLQHPILCLHLLKVLYSCCLVSEGLCRLLGQEPLALESLFMLIQGKVKVVDWEESTEVTLYFLSLLVFRLQNLPCGMEKLGSDVATLFTHSHVVSLVSAAACLLGQLGQQGVTFDLQPMEWMAAATHALSAPAEVRLTPPGSCGFYDGLLILLLQLLTEQGKASLIRDMSSSEMWTVLWHRFSMVLRLPEEASAQEGELSLSSPPSPEPDWTLISPQGMAALLSLAMATFTQEPQLCLSCLSQHGSILMSILKHLLCPSFLNQLRQAPHGSEFLPVVVLSVCQLLCFPFALDMDADLLIGVLADLRDSEVAAHLLQVCCYHLPLMQVELPISLLTRLALMDPTSLNQFVNTVSASPRTIVSFLSVALLSDQPLLTSDLLSLLAHTARVLSPSHLSFIQELLAGSDESYRPLRSLLGHPENSVRAHTYRLLGHLLQHSMALRGALQSQSGLLSLLLLGLGDKDPVVRCSASFAVGNAAYQAGPLGPALAAAVPSMTQLLGDPQAGIRRNVASALGNLGPEGLGEELLQCEVPQRLLEMACGDPQPNVKEAALIALRSLQQEPGIHQVLVSLGASEKLSLLSLGNQSLPHSSPRPASAKHCRKLIHLLRPAHSM | no effect | 1.6 times | failed to activate

— patent publication US20130040894A1, “INHIBITION OR ACTIVATION OF SERINE/THREONINE ULK3 KINASE ACTIVITY” (TALLINN UNIVERSITY OF TECHNOLOGY, priority 2009, published 2013)
